From publication PMC10397247
Each block holds one binder with its values, some of them ahead of it.

Key:
4H855-bH = target: T1, 4H855-bH; experiment: two-hybrid library CCNG1;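 further: natural log of median RNA to DNA barcode read ratio; higher means stronger binding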
T1 chain: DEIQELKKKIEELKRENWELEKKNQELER

4H575-bH = target: T2, 4H575-bH; experiment: two-hybrid library CCNG1;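 further: natural log of median RNA to DNA barcode read ratio; higher means stronger binding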
T2 chain: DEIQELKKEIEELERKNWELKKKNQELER

4H780-bH = target: T3, 4H780-bH; experiment: two-hybrid library CCNG1;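 further: natural log of median RNA to DNA barcode read ratio; higher means stronger binding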
T3 chain: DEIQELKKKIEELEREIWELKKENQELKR

4H346-bH = target: T4, 4H346-bH; experiment: two-hybrid library CCNG1;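 further: natural log of median RNA to DNA barcode read ratio; higher means stronger binding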
T4 chain: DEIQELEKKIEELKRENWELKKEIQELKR

4H797-bH = target: T5, 4H797-bH; experiment: two-hybrid library CCNG1
T5 chain: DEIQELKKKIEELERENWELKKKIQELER

4H683-bH = target: T6, 4H683-bH; experiment: two-hybrid library CCNG1
T6 chain: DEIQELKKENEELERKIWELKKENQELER

4H953-bH = target: T7, 4H953-bH; experiment: two-hybrid library CCNG1
T7 chain: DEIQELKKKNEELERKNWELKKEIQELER

4H918-bH = target: T8, 4H918-bH; experiment: two-hybrid library CCNG1
T8 chain: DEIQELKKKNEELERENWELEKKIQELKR

4H3427-bH = target: T9, 4H3427-bH; experiment: two-hybrid library CCNG1
T9 chain: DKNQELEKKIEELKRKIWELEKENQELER

4H3112-bH = target: T10, 4H3112-bH; experiment: two-hybrid library CCNG1
T10 chain: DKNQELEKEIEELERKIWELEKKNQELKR

4H754-bH = target: T11, 4H754-bH; experiment: two-hybrid library CCNG1
T11 chain: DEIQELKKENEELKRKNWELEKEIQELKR

4H3926-bH = target: T12, 4H3926-bH; experiment: two-hybrid library CCNG1
T12 chain: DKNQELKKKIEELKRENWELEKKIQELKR

4H968-bH = target: T13, 4H968-bH; experiment: two-hybrid library CCNG1
T13 chain: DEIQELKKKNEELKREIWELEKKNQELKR

4H4073-bH = target: T14, 4H4073-bH; experiment: two-hybrid library CCNG1
T14 chain: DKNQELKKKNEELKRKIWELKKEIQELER

4H953-bA = target: T15, 4H953-bA; experiment: two-hybrid library CCNG1
T15 chain: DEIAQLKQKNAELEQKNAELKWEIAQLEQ

4H457-bH = target: T16, 4H457-bH; experiment: two-hybrid library CCNG1
T16 chain: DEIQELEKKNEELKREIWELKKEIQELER

4H55-AA = target: T17, 4H55-AA; experiment: two-hybrid library CCmax; conditions: mean of both orientations
T17 chain: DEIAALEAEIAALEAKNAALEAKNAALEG

4H3940-AA = target: T18, 4H3940-AA; experiment: two-hybrid library CCmax; conditions: mean of both orientations
T18 chain: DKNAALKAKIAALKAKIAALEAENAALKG

4H_BCR = target: T19, 4H_BCR; experiment: two-hybrid library CCmax; conditions: mean of both orientations
T19 chain: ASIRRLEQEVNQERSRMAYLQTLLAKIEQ

4H3664-AA = target: T20, 4H3664-AA; experiment: two-hybrid library CCmax; conditions: mean of both orientations
T20 chain: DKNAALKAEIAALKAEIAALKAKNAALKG

GCN2_T = experiment: two-hybrid library CCmax
4H451-AA = target: T21, 4H451-AA; experiment: two-hybrid library CCmax; conditions: mean of both orientations
T21 chain: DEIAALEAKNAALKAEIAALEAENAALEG

4H4038-AA = target: T22, 4H4038-AA; experiment: two-hybrid library CCmax; conditions: mean of both orientations
T22 chain: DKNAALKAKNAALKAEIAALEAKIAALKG

4H816-AA = target: T23, 4H816-AA; experiment: two-hybrid library CCmax; conditions: mean of both orientations
T23 chain: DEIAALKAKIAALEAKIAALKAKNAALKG

4H775-AA = target: T24, 4H775-AA; experiment: two-hybrid library CCmax; conditions: mean of both orientations
T24 chain: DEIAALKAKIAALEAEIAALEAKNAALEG

4H662-AA = target: T25, 4H662-AA; experiment: two-hybrid library CCmax; conditions: mean of both orientations
T25 chain: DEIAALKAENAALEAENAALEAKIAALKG

4H_APH = target: T26, 4H_APH; experiment: two-hybrid library CCmax; conditions: mean of both orientations
T26 chain: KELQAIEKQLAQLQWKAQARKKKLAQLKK

4H384-AA = target: T27, 4H384-AA; experiment: two-hybrid library CCmax; conditions: mean of both orientations
T27 chain: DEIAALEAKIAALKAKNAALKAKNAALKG

4H87-AA = target: T28, 4H87-AA; experiment: two-hybrid library CCmax; conditions: mean of both orientations
T28 chain: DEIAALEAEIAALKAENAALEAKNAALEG

4H481-AA = target: T29, 4H481-AA; experiment: two-hybrid library CCmax; conditions: mean of both orientations
T29 chain: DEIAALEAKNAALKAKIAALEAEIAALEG

4H3625-AA = target: T30, 4H3625-AA; experiment: two-hybrid library CCmax
T30 chain: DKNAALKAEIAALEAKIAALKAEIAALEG

4H_GCN4 = experiment: two-hybrid library CCmax; conditions: mean of both orientations
O11-AA = target: T31, O11-AA; experiment: two-hybrid library CCmax; conditions: mean of both orientations
T31 chain: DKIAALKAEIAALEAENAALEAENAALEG

4H3905-AA = target: T32, 4H3905-AA; experiment: two-hybrid library CCmax; conditions: mean of both orientations
T32 chain: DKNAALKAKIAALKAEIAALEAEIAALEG

4H43-AA = target: T33, 4H43-AA; experiment: two-hybrid library CCmax; conditions: mean of both orientations
T33 chain: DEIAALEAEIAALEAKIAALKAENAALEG

O14-AA = target: T34, O14-AA; experiment: two-hybrid library CCmax; conditions: mean of both orientations
T34 chain: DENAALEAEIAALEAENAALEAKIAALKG

4H3922-AA = target: T35, 4H3922-AA; experiment: two-hybrid library CCmax; conditions: mean of both orientations
T35 chain: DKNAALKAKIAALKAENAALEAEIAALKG

4H4033-AA = target: T36, 4H4033-AA; experiment: two-hybrid library CCmax; conditions: mean of both orientations
T36 chain: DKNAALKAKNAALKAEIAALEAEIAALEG

4H510-AA = target: T37, 4H510-AA; experiment: two-hybrid library CCmax; conditions: mean of both orientations
T37 chain: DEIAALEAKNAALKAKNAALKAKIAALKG

4H369-AA = target: T38, 4H369-AA; experiment: two-hybrid library CCmax; conditions: mean of both orientations
T38 chain: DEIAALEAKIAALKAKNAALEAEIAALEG

O13-AA = target: T39, O13-AA; experiment: two-hybrid library CCmax; conditions: mean of both orientations
T39 chain: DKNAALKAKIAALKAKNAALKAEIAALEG

4H390-AA = target: T40, 4H390-AA; experiment: two-hybrid library CCmax; conditions: mean of both orientations
T40 chain: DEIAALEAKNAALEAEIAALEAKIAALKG

4H850-bH = target: T41, 4H850-bH; experiment: two-hybrid library CCNG1
T41 chain: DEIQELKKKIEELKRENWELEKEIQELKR

Chain of 4H_GCN4 (chain, as listed by the source): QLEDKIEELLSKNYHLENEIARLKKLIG

interaction score (4H855-bH): -0.95
interaction score (4H575-bH): -2.51
interaction score (4H780-bH): -0.427
interaction score (4H346-bH): -0.345
interaction score (4H797-bH): -1.11
interaction score (4H683-bH): 0.161
interaction score (4H953-bH): 0.505
interaction score (4H918-bH): -2.71
interaction score (4H3427-bH): 0.496
interaction score (4H3112-bH): -1.68
interaction score (4H754-bH): -1.06
interaction score (4H3926-bH): 0.68
interaction score (4H968-bH): 0.0625
interaction score (4H4073-bH): 0.581
interaction score (4H953-bA): -0.817
interaction score (4H457-bH): 0.658
B1: 4H3010-bH (peptide)
chain: DKIQELKKKNEELKREIWELEKEIQELKR

interaction score (4H55-AA): -1.29
interaction score (4H3940-AA): -0.199
interaction score (4H_BCR): -1.17
interaction score (4H3664-AA): -0.0768
interaction score (GCN2_T): -0.674
interaction score (4H451-AA): -1.64
interaction score (4H4038-AA): 1.61
interaction score (4H816-AA): 1.38
interaction score (4H775-AA): 0.881
interaction score (4H662-AA): -1.3
interaction score (4H_APH): -1.59
interaction score (4H384-AA): -1.24
interaction score (4H87-AA): -0.904
interaction score (4H481-AA): -0.502
interaction score (4H3625-AA): 2.27
interaction score (4H_GCN4): -0.702
interaction score (O11-AA): -1.53
interaction score (4H3905-AA): 2.29
interaction score (4H43-AA): 1.85
interaction score (O14-AA): 1.44
interaction score (4H3922-AA): 0.185
interaction score (4H4033-AA): -0.401
interaction score (4H510-AA): -1.93
interaction score (4H369-AA): -0.703
interaction score (O13-AA): -1.47
interaction score (4H390-AA): 1.54
B2: 4H3625-AA (peptide)
chain: DKNAALKAEIAALEAKIAALKAEIAALEG

interaction score (4H855-bH): 0.532
interaction score (4H575-bH): -0.18
interaction score (4H780-bH): 0.0507
interaction score (4H346-bH): 0.99
interaction score (4H797-bH): 0.329
interaction score (4H683-bH): -1.17
interaction score (4H953-bH): 0.155
interaction score (4H918-bH): -3.17
interaction score (4H754-bH): -0.0538
interaction score (4H3926-bH): 1.28
interaction score (4H968-bH): -0.466
interaction score (4H850-bH): -3.53
interaction score (4H4073-bH): -0.154
interaction score (4H457-bH): 0.311
B3: 4H346-bH (peptide)
chain: DEIQELEKKIEELKRENWELKKEIQELKR
